{"source": "patent CN108484759A", "binders": {"B1": {"name": "IBDV-VP2 scFv30抗体 (scFv)", "scFv": "AVTLDESGGGLQTPGGALSLVCKGSGFDFSSHGMAWVRQAPGKGLEWVAGIGSSSSGTAYGSAVQGRATISRDNGQSTVRLQLNNLRAEDTGTYYCAKSVGDCAYGYSCAAGGIDAWGHGTEVIVSSASGGGGSGGGGSGGGGSVLTQPSSVSANPGETVKITCSGGGGSYGWFQQKSPGSAPVTVIYNNNNRPSDIPSRFSGSKSGSTATLTITGVQAEDEAVYYCGGSEDSSAGYVGIFGAGTTLTVLG"}}, "target": "鸡传染性法氏囊病病毒 B87株", "test": "cell-based or functional assay"}
{"binder": "B1", "values": [{"measurement": "阻断或抑制CPE的最小蛋白浓度", "value": 4.69, "unit": "µg/mL"}]}
